System: K4 kissing-loop RNA reporter
Experiment: apparent KD of K4 kissing-loop reporter; higher = weaker reporter binding
Conditions: Eterna round: R107
Protocol: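 RNA-MaP round R107: designed RNA switches with theophylline, tryptophan, arginine or FMN aptamers are transcribed on-chip within common flanks. They are titrated with a labelled K4 kissing-loop RNA reporter in RNA-MaP buffer (100 mM Tris pH 7.5, 80 mM KCl, 4 mM MgCl2), without ligand or with the indicated ligand. Median apparent KD per design.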

[1] = input ligand: theophylline 20 uM
[2] = input ligand: tryptophan 2.4 mM
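Note: bound reporter read as fluorescence of individual clusters on recovered sequencing chips by microscopy, with normalized cluster intensities fitted with a binding model.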

Row | Sequence | apparent KD of K4 kissing-loop reporter (input ligand: FMN 200 uM) [nM] | apparent KD of K4 kissing-loop reporter (input ligand: arginine 13.2 mM) [nM] | apparent KD of K4 kissing-loop reporter (input ligand: none) [nM] | apparent KD of K4 kissing-loop reporter [1] [nM] | apparent KD of K4 kissing-loop reporter [2] [nM]
1 | UGUCAUGGAAACAUGACCGUUAAAAUAAAUCGAGGACCGGUACGGCCGCCACUCGUAUAGCGGUCAGUGAUGUUGACUGUAGUAC [KL-SSTryp-A form2 sub12 #dotplot2>1] | 419 | 428 | 491 | 475 | 546
2 | UGUCAUUGGUCUGAUACCAGUACCCUUGGCAGCCAAGGAGUGAUGUUCCGAGGAUACCAGUGCCCUUGGCAGCAGACCGAUGACU [TheoBS 27 #DoubleAptamer #SwitchBubble] | 375 | 308 | 354 | 176 | 350
3 | UGUCAUUGGUCUGAUACCAGUUGAUAAACUGGAGUGAUGUUCCUCGACGAAUACGUCGACAACCCUUGGCAGCAGACCGAUGACU [TheoBS 14 #SwitchBubble 13 #StaticStem] | 683 | 627 | 713 | 354 | 607
4 | UGUGAUGUGUAGUGUGAUGUUUUGAAGGAUACCAGAGUGUUGUUAUUCCCUUGGCAGCUUGAGUGAUGUUUGAUGUUGUUGUUGU [aawemullin] | 324 | 179 | 260 | 229 | 224
5 | UGUGAUGUGUAGUGUUAUGUUUUGCGGGAUACCAGAGUCUUUUUAUUCCCUUGGCAGCUUGAGUGAUGUUUGAUGCUGUUGUUGU [pwwamullin] | 485 | 349 | 461 | 463 | 339
6 | UGUGUUUACCUGACUCAGUGAUGUUGAGAAGGAGCGUGAGAAGGCACAGGUAGGUCGCUCAACCUAAAUUCAGGUGAGCACUAAA | 134 | 188 | 173 | 193 | 142
7 | UGUGUUUACCUGACUCAGUGAUGUUGAGAAGGAGCGUGCUAAUGCACAGGUAGGUCGCUCAACCUAAAUUCAGGUGAGCACUAAA | 587 | 250 | 560 | 271 | 478
8 | UGUGUUUACCUGACUCAGUGAUGUUGAGAAGGAGCGUUCGAAAGAACAGGUAGGUCGCUCAACCUAAAUUCAGGUGAGCACUAAA | 264 | 223 | 376 | 466 | 322
9 | UGUUAUGUAUCAGGAUAUUAGUGUUGUUUGUUUAUGUUAGUGAUGUUGAUAUUUGUUUUAUGUAUUUAAGAAGGGAUUGAGAUGU [kkplmullin] | 369 | 339 | 310 | 359 | 258
10 | UUAGAGAUCUCAGGAUAUCAGUGAUGUUGGUUGCCAGAUCUGAGAUAGAAUUCUAUCUCAGAUCAAUGAGAAGGGAGAUCUCAUU [AK4 Exc FMN B] | 501 | 313 | 352 | 317 | 282
11 | UUAGAUCAAAGAUCAGUCUUAUGGAGGGAACGAGGACCGGUACGGCCGCCACUCGAGUGAUGUUCGAGAACCCUCGUGACAAAUU [AK4 EXC Tryptophan A] | 196 | 146 | 189 | 164 | 297
12 | UUAGGAGUGGAAGGAUAUCCUGGUGUGGGUGGUGUUAGUGAUGUUGGUGGUGCAGUGAUGUUGCGCGGAGAAGGUCCGGUGUUGA [BDazzled - #4 - Exc. FMN B] | 471 | 384 | 434 | 554 | 358
13 | UUAGUCUAGAGAAGGAGCGAGUGAUGUUUGCUAAGCUAUAUAAUAAAAUAUAGCAAAUUUACUCAGGUAGGUCGCUCUAGACAUU [AK3 Exc Arginine B] | 153 | 122 | 98 | 149 | 74.2
14 | UUAGUCUAGAGAAGGAGCGCAGUGAUGUUGCGGUAUGUGAAAAUAUGUAUAUAAUAAUAAAUGCAGGUAGGUCGCUCUAGACAUU [AK2 Exc Arginine B] | 68.4 | 89.7 | 64.9 | 85.7 | 54.3
15 | UUAUAAUUCAGUGAUGUUGAAAAUAUAACAGAGGAUAUGCGUUUAAGCAGAAGGCUGAAAUACUAUACUUUAAUCUAUUAAAUUU [JR_SSFMNA_Sub019] | 232 | 377 | 313 | 332 | 212
16 | UUAUAUACGAGUGAUGUUCGUUAUUUAUCAGAGGAUAUGCUUAAAUGCAGAAGGCUGUAUUUCUAUUUGAUAUUAAAUUUUAUAA [JR_Nu3_ExcFMNA_Sub026] | 90.8 | 89.8 | 66.8 | 86.1 | 57.3
17 | UUAUUAAUCACAGAUACCAGUCCAGAAUGAAUACUAUAGUGAUGUUAUAAUAAAGGGAAGGACCCUUGGCAGCUGUAAUAUAUUU [AstrosSsTheB#2] | 525 | 370 | 499 | 354 | 320
18 | UUCGUAGUAGGAAACUAUUACGAAAAGGAAGGAGCGGCGAAGAAGCCAGGUAGGUCGCCUAUUGACAGUGAUGUUGUUAUGUAGA [#9] | 172 | 341 | 241 | 360 | 142
